Test results taken from patent US20240392004A1 (IMMUNOWAKE, published 2024).
Where a chain is given by its changes, count along the chain named. Numbers in names are those of the source.

T1: human TIGIT on HEK-Blue reporter cells (human, UniProt Q495A1 22-244)
T1 sequence (looked up): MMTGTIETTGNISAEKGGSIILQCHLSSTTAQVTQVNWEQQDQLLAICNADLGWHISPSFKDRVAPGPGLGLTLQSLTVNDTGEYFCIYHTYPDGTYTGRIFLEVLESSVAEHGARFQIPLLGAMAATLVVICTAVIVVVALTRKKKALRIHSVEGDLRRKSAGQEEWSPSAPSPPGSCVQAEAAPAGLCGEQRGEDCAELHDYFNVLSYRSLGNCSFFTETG

T2: human IL-2 receptor (IL-2Rα, IL-2Rβ, IL-2Rγ) (human, UniProt P01589 22-272; P14784 27-551; P31785 23-369)
T2 sequence (looked up) 1: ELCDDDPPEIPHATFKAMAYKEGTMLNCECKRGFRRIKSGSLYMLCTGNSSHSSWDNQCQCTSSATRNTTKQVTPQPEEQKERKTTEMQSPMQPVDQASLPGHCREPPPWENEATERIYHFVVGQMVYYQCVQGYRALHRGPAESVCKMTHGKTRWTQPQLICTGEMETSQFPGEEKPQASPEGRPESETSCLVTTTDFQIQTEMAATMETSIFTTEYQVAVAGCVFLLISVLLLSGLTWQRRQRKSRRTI
T2 sequence (looked up) 2: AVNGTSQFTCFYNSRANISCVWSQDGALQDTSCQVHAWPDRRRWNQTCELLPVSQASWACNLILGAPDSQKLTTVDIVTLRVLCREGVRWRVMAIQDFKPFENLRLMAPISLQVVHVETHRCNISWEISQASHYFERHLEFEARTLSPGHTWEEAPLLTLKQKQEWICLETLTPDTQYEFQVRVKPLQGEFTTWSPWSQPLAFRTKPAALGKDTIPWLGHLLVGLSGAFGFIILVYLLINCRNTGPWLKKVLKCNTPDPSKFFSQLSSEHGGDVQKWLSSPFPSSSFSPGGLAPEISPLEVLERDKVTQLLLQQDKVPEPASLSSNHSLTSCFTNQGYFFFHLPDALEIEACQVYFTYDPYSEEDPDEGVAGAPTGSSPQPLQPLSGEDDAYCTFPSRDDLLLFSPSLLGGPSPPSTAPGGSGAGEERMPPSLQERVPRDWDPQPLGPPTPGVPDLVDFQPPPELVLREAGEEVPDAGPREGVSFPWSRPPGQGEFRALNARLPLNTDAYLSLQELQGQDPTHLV
T2 sequence (looked up) 3: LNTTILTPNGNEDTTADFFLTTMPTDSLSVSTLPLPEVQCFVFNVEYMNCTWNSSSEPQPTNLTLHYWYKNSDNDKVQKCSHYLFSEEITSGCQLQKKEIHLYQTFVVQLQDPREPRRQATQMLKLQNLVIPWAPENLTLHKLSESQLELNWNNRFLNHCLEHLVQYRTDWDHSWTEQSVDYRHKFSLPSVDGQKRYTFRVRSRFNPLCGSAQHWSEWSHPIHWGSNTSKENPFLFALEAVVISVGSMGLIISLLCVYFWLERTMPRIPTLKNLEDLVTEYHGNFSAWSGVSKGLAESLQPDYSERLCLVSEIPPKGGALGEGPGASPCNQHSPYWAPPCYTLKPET

B1: IL-12(E59A/F60A)/CD155-Fc (IL-12 at hinge) (Fc fusion)
chain 1: WPPPGTGDVVVQAPTQVPGFLGDSVTLPCYLQVPNMEVTHVSQLTWARHGESGSMAVFHQTQGPSYSESKRLEFVAARLGAELRNASLRMFGLRVEDEGNYTCLFVTFPQGSRSVDIWLRVLAKPQNTAEVQKVQLTGEPVPMARCVSTGGRPPAQITWHSDLGGMPNTSQVPGFLSGTVTVTSLWILVPSSQVDGKNVTCKVEHESFEKPQLLTVNLTVYYPPEVSISGYDNNWYLGQNEATLTCDARSNPEPTGYNWSTTMGPLPPFAVAQGAQLLIRPVDKPINTTLICNVTNALGARQAELTVQVKEGPPSEHSGISRNGGGGSGGGIWELKKDVYVVELDWYPDAPGEMVVLTCDTPEEDGITWTLDQSSEVLGSGKTLTIQVKAAGDAGQYTCHKGGEVLSHSLLLLHKKEDGIWSTDILKDQKEPKNKTFLRCEAKNYSGRFTCWWLTTISTDLTFSVKSSRGSSDPQGVTCGAATLSAERVRGDNKEYEYSVECQEDSACPAAEESLPIEVMVDAVHKLKYENYTSSFFIRDIIKPDPPKNLQLKPLKNSRQVEVSWEYPDTWSTPHSYFSLTFCVQVQGKSKREKKDRVFTDKTSATVICRKNASISVRAQDRYYSSSWSEWASVPCSGGGGSGGGSGGGGSRNLPVATPDPGMFPCLHHSQNLLRAVSNMLQKARQTLEFYPCTSEEIDHEDITKDKTSTVEACLPLELTKNESCLNSRETSFITNGSCLASRKTSFMMALCLSSIYEDLKMYQVEFKTMNAKLLMDPKRQIFLDQNMLAVIDELMQALNFNSETVPQKSSLEEPDFYKTKIKLCILLHAFRIRAVTIDRVMSYLNASGGGGSGGGDKTHTCPPCPAPEDEGGPSVFLFPPKPKDTLMISRTPEVTCVVVDVSHEDPEVKFNWYVDGVEVHNAKTKPREEQYNSTYRVVSVLTVLHQDWLNGKEYKCKVSNKALPAPIEKTISKAKGQPREPQVYVYPPSREEMTKNQVSLTCLVKGFYPSDIAVEWESNGQPENNYKTTPPVLDEDGSFALVSKLTVDKSRWQQGNVFSCSVMHEALHNHYTQKSLSLSPGK
chain 2: WPPPGTGDVVVQAPTQVPGFLGDSVTLPCYLQVPNMEVTHVSQLTWARHGESGSMAVFHQTQGPSYSESKRLEFVAARLGAELRNASLRMFGLRVEDEGNYTCLFVTFPQGSRSVDIWLRVLAKPQNTAEVQKVQLTGEPVPMARCVSTGGRPPAQITWHSDLGGMPNTSQVPGFLSGTVTVTSLWILVPSSQVDGKNVTCKVEHESFEKPQLLTVNLTVYYPPEVSISGYDNNWYLGQNEATLTCDARSNPEPTGYNWSTTMGPLPPFAVAQGAQLLIRPVDKPINTTLICNVTNALGARQAELTVQVKEGPPSEHSGISRNGGGGSGGGDKTHTCPPCPAPEKKGGPSVFLFPPKPKDTLMISRTPEVTCVVVDVSHEDPEVKFNWYVDGVEVHNAKTKPREEQYNSTYRVVSVLTVLHQDWLNGKEYKCKVSNKALPAPIEKTISKAKGQPREPQVYVLPPSREEMTKNQVSLLCLVKGFYPSDIAVEWESNGQPENRYMTWPPVLDSDGSFFLYSKLTVDKSRWQQGNVFSCSVMHEALHNHYTQKSLSLSPGK
B2: IL-2(L18R/Q22E/R38D/K43E/E61R/Q126T)/CD155-Fc (Fc fusion)
chain 1: B1 chain 2 with K345D, K346E, L462Y, L477T, R501N, M503K, W505T, S511E, F516A, Y518V
chain 2: WPPPGTGDVVVQAPTQVPGFLGDSVTLPCYLQVPNMEVTHVSQLTWARHGESGSMAVFHQTQGPSYSESKRLEFVAARLGAELRNASLRMFGLRVEDEGNYTCLFVTFPQGSRSVDIWLRVLAKPQNTAEVQKVQLTGEPVPMARCVSTGGRPPAQITWHSDLGGMPNTSQVPGFLSGTVTVTSLWILVPSSQVDGKNVTCKVEHESFEKPQLLTVNLTVYYPPEVSISGYDNNWYLGQNEATLTCDARSNPEPTGYNWSTTMGPLPPFAVAQGAQLLIRPVDKPINTTLICNVTNALGARQAELTVQVKEGPPSEHSGISRNGGGSGAPTSSSTKKTQLQLEHLRLDLEMILNGINNYKNPKLTDMLTFEFYMPKKATELKHLQCLERELKPLEEVLNLAQSKNFHLRPRDLISNINVIVLELKGSETTFMCEYADETATIVEFLNRWITFCTSIISTLTGGGGSGGGDKTHTCPPCPAPEKKGGPSVFLFPPKPKDTLMISRTPEVTCVVVDVSHEDPEVKFNWYVDGVEVHNAKTKPREEQYNSTYRVVSVLTVLHQDWLNGKEYKCKVSNKALPAPIEKTISKAKGQPREPQVYVLPPSREEMTKNQVSLLCLVKGFYPSDIAVEWESNGQPENRYMTWPPVLDSDGSFFLYSKLTVDKSRWQQGNVFSCSVMHEALHNHYTQKSLSLSPGK
B3: IL-12(E59A/F60A)/IL-2(L18R/Q22E/R38D/K43E/E61R/Q126T/S130R)/CD155-Fc (Fc fusion)
chain 1: B1 chain 1
chain 2: B2 chain 2 with S458R
B4: IL-12(E59A/F60A)/IL-2(L18R/Q22E/R38D/K43E/E61R)/CD155-Fc (Fc fusion)
chain 1: B1 chain 1
chain 2: B2 chain 2 with T454Q
B5: IL-12(E59A/F60A)/IL-2(L18R/Q22E/R38D/K43E/E61R/Q126T)/CD155-Fc (Fc fusion)
chain 1: B1 chain 1
chain 2: B2 chain 2
B6: IL-12(E59A/F60A)/IL-2(R38D/K43E/E61R/Q126T)/CD155-Fc (Fc fusion)
chain 1: B1 chain 1
chain 2: B2 chain 2 with R346L, E350Q
B7: IL-2(L18R/Q22E/R38D/K43E/E61R/Q126T/S130R)/CD155-Fc (Fc fusion)
chain 1: B1 chain 2 with K345D, K346E, L462Y, L477T, R501N, M503K, W505T, S511E, F516A, Y518V
chain 2: B2 chain 2 with S458R

Columns and labels:
Assay in all cases: cell-based or functional assay
[1] = target: human IL-12 receptor complex (IL-12Rβ1 and IL-12Rβ2) (human, UniProt P42701 24-662; Q99665 24-862)
[2] = target: T1, human TIGIT on HEK-Blue reporter cells
[3] = target: T2, human IL-2 receptor (IL-2Rα, IL-2Rβ, …)

Chain of human IL-12 receptor complex (IL-12Rβ1 and IL-12Rβ2) (Q99665 24-862, chain 2 of 2, other chains not shown): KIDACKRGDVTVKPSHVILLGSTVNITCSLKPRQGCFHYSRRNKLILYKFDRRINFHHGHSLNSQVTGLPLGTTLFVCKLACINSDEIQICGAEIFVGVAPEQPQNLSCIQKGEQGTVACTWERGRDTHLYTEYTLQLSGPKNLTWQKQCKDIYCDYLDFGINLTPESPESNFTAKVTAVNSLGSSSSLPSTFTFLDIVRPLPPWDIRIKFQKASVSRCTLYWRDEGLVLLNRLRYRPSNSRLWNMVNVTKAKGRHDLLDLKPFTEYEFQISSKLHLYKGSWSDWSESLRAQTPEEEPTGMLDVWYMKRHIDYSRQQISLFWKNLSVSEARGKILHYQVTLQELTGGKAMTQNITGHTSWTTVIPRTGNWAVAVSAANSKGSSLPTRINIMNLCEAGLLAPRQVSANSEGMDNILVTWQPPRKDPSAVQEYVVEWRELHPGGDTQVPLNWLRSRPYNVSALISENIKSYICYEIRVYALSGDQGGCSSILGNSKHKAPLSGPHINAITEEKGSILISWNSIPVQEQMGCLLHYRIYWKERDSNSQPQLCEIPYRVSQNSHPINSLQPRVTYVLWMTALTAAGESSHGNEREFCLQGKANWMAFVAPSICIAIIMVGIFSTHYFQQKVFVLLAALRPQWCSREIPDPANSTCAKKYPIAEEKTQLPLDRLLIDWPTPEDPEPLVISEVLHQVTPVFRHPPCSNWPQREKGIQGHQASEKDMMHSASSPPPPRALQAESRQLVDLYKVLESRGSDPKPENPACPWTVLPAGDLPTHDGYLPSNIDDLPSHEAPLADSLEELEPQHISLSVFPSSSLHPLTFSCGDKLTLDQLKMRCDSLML

Row | Binder | IL-12 signal transduction, HEK-IL-12 [1] [%] | IL-2 signal transduction, HEK-IL-2-TIGIT [2] [%] | IL-12 signal transduction, HEK-IL-12-TIGIT [2] [%] | IL-2 signal transduction, HEK-IL-2 [3] [%]
1 | B1 | < 0.2 | < 0.1 | 21 | < 0.1
2 | B2 | – | 15 | – | 2
3 | B3 | < 0.2 | < 0.1 | 15 | < 0.1
4 | B4 | < 0.2 | 78 | 21 | 12
5 | B5 | < 0.2 | 20 | 19 | 2
6 | B6 | < 0.2 | 35 | 17 | 4
7 | B7 | – | < 0.1 | – | < 0.1
